The values below come from paper PMC7335187, “Super-assembly of ER-phagy receptor Atg40 induces local ER remodeling at contacts with forming autophagosomal membranes” (Nature Communications, 2020).

Data set [1] addresses T1, LC3B WT (rat LC3B 1-120) (rat, UniProt Q62625 1-120). The data set is described as follows: ITC; peptide in the syringe (0.5 mM) titrated into 200 µl of the Atg8 homologue in the cell at a 10 times lower concentration; MicroCal iTC200, 25 °C, stirring at 1000 rpm; single-site binding model; N fixed to 1.0 when the fitting was not convergent due to weak interaction; errors are fitting errors. As to conditions: both partners purified.

Data set [2] addresses T2, LC3A WT (UniProt Q9H492 1-121). Described as above. Conditions: both partners purified.
For data set [3], the target named is T3, GABARAP WT (human GABARAP 1-116) (human, UniProt O95166 1-116). The data set is described as above. As to conditions: both partners purified.
T3 sequence (O95166 1-116): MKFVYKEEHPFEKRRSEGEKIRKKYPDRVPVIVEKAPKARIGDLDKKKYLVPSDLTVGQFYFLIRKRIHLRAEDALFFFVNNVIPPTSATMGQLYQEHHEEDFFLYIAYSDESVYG
For a further data set, the target named is T4, Atg8 (1-116) K26P (S. cerevisiae, UniProt P38182 1-116, K26P).
T4 sequence (looked up): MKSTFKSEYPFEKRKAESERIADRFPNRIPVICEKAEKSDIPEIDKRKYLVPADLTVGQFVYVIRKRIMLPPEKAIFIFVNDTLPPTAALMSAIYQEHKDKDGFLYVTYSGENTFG
The experiment in a line: ITC; MicroCal iTC200, 25 °C; peptide in the syringe (FAM134B, SEC62, RTN3 0.5 mM; Atg40^234–252 2.0 mM; Atg40^237–252 1.8 mM), Atg8-family protein in the cell at 10 times lower concentration (1.8 mM Atg8 for Atg40^237–252 D243A D247A); 20 mM HEPES pH 6.8, 150 mM NaCl; single-site model; errors are fitting errors. Conditions: both partners purified.

In data set [4] the target is T5, Atg8 K26P (in the crystallised Atg40^237–252-Atg8 fusion) (S. cerevisiae, UniProt P38182 1-116, K26P).
T5 construct: Atg8, S. cerevisiae (ScAtg8), residues 1-116; K26P introduced for stabilizing Atg8; the GST of the fusion stood before m15 and was cleaved; source: E. coli BL21 (DE3), purified (GST-accept resin, HRV 3C protease, SEC), on one chain with m15
T5 sequence (looked up): T4 sequence (looked up)
The experiment in a line: crystal structure; the AIM sequence fused to the N terminus of Atg8 K26P or GABARAP F3S V4T on one chain; sitting-drop vapor diffusion at 20 °C; molecular replacement. Conditions: both partners purified.

The target of data set [5] is T6, GABARAPL2 WT (UniProt P60520 1-117). The data set is described as follows: ITC; peptide in the syringe (0.5 mM) titrated into 200 µl of the Atg8 homologue in the cell at a 10 times lower concentration; MicroCal iTC200, 25 °C, stirring at 1000 rpm; single-site binding model; N fixed to 1.0 when the fitting was not convergent due to weak interaction; errors are fitting errors. Conditions: both partners purified.
T6 sequence (P60520 whole entry): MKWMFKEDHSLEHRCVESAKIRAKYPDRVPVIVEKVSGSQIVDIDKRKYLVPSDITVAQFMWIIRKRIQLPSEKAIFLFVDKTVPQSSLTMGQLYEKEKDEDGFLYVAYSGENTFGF

The target of data set [6] is T7, GABARAPL1 WT (UniProt Q9H0R8 1-117). Described as above. As to conditions: both partners purified.
T7 sequence (Q9H0R8 whole entry): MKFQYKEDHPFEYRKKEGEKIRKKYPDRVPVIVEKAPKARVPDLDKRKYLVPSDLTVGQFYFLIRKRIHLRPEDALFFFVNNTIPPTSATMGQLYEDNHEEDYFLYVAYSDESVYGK
Data set [7] deals with the molecule itself. The experiment in a line: co-IP; two-step: anti-FLAG beads, elution with 3 x FLAG peptide, then GFP nanobody-conjugated beads, blot for Atg40-HA; wild-type cells; larger oligomers significantly decreased in atg1Δ, atg2Δ and atg8Δ cells.
Data set [8] concerns the molecule itself. The data set is described as follows: SEC-MALS; Atg40-6His solubilized in DDM; Superdex 200 increase 10/300 in 20 mM Tris-HCl pH 8.0, 150 mM NaCl, 0.03% DDM, room temperature.
Data set [9] addresses T2, LC3A WT. The data set is described as follows: ITC; peptide in the syringe (0.5 mM) titrated into 200 µl of the Atg8 homologue in the cell at a 10 times lower concentration; MicroCal iTC200, 25 °C, stirring at 1000 rpm; single-site binding model; N fixed to 1.0 when the fitting was not convergent due to weak interaction; errors are fitting errors. As to conditions: both partners purified. The source holds these as a separate data set.

For data set [10], the target named is T6, GABARAPL2 WT. The data set is described as above. Conditions: both partners purified. The source holds these as a separate data set.
Data set [11] has as its target T7, GABARAPL1 WT. The description is as above. Conditions: both partners purified. This is another data set of the same source.
The target of a further data set is LC3C WT (UniProt Q9BXW4 1-126). Described as above. Conditions: both partners purified.
Chain of LC3C WT (Q9BXW4 1-126): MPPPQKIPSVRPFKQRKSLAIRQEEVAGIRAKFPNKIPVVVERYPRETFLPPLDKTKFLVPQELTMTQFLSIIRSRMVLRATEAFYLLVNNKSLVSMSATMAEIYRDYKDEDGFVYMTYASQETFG
The target in data set [12] is T1, LC3B WT (rat LC3B 1-120). The description is as above. Conditions: both partners purified. The source holds these as a separate data set.
Data set [13] addresses T3, GABARAP WT (human GABARAP 1-116). The description is as above. Conditions: both partners purified. The source holds these as a separate data set.

B1: RTN3245-253 (Δhelix) peptide (peptide)
peptide: YESPFEVIID
notes: numbers count on: isoform e; also called RTN3245-253 WT (Δhelix); source: synthetic peptide
Regarding B1, the dissociation constant Kd is 31.1 µM in the data set with LC3B WT (rat LC3B 1-120) [1], 21.7 µM with LC3A WT [2] and 14 µM in [3]. The “stoichiometry N” value with LC3B WT (rat LC3B 1-120) [1] came to 0.91 site; with LC3A WT [2], 0.54 site; in data set [3], 0.82 site.

B2: Atg40^234–252 peptide (peptide, UniProt Q99325 234-252, looked up)
peptide: TSTEFPNDYDFMEDILDET
notes: Atg40, S. cerevisiae, residues 234-252; also called wild-type peptide; source: synthetic peptide (Liberty Blue peptide synthesizer), SEC
B2 displayed a dissociation constant Kd with Atg8 (1-116) K26P of 0.59 µM.
As for EFPNDYDFMEDILDET (domain or fragment, S. cerevisiae, UniProt Q99325 237-252, looked up) [Atg40^237–252 (in the crystallised Atg40^237–252-Atg8 fusion)], in data set [4], the binding result was “binds”.

B3: RTN3245-264 peptide (peptide)
peptide: ESPFEVIIDKAAFDKEFKDSY
notes: numbers count on: isoform e; Tyr attached to the C terminus for quantification by absorbance at 280 nm; source: synthetic peptide
In the case of B3, the Kd worked out at 28.8 µM in the data set with LC3B WT (rat LC3B 1-120) [1]; 17.2 µM with LC3A WT [2]; 17.4 µM with GABARAPL2 WT [5]; 5 µM with GABARAPL1 WT [6]; 5.03 µM in data set [3]. The “stoichiometry N” value is 0.55 site with LC3A WT [2], 0.51 site with GABARAPL2 WT [5], 0.81 site with GABARAPL1 WT [6] and 0.74 site in data set [3].

B4: Atg40-HA (natural protein, S. cerevisiae, UniProt Q99325 1-256, looked up)
chain: MFNLILWPLFLLTSVAIPLQLTLEVVYLTSSVDFSKASAAKTATSLGQSPVVITIYKSLLKYWSLYEFIHFIYLYTPIDAFLNFLPFTSLLMSFGSICLTRELVYDFIAFMESQNKLTGFLNKITEPNFNSYLLFSSIYNIWFADDTNDKFLFGKLTQILISVTKRYEFPRTFYLAKVSDFLQNLILTRLRPFVTEQPQGDKNRYQNGDRESTKNGAAYQKSSQQSSSFEQNFTSTEFPNDYDFMEDILDETTELD
notes: Atg40, ER-phagy receptor of S. cerevisiae; also called Atg40-FLAG; Atg40-GFP; source: S. cerevisiae cells treated with rapamycin, in lysate
Turning to B4, the “stoichiometry N” value in [7] is more than 2.

B5: Atg40-6His (natural protein, S. cerevisiae, UniProt Q99325 1-256, looked up)
chain: B4 chain
notes: Atg40, S. cerevisiae; Atg40-6His is printed as 30.6 kDa; also called purified Atg40; source: S. cerevisiae BJ3505 (GPD promoter), purified from membranes in DDM (Ni-NTA, SEC)
Regarding B5, in [8], the “stoichiometry N” value came out at 2.
With GPHSSGNGNDFEMITKEELEQQTDY [SEC62355-376 WT peptide], the dissociation constant Kd with LC3A WT [9] was determined as 0.92 µM; with GABARAPL2 WT [10] it was 0.58 µM; in the data set with GABARAPL1 WT [11], 0.39 µM; with LC3C WT, 5.18 µM; in the data set with LC3B WT (rat LC3B 1-120) [12] it was 3.37 µM. In addition, the “stoichiometry N” value with LC3A WT [9] came to 0.78 site; in the data set with GABARAPL2 WT [10], 0.78 site; in the data set with GABARAPL1 WT [11], 0.83 site; with LC3C WT, 0.46 site; in the data set with LC3B WT (rat LC3B 1-120) [12], 0.74 site.
For the molecule GPHSSGNGNDFEMATKEELEQQTDY [SEC62355-376 I366A peptide], in data set [13], the affinity, expressed as Kd, was 14.5 µM and the “stoichiometry N” value is 0.87 site.

B6: SEC62361-368 (Δhelix) peptide (peptide)
peptide: NDFEMITKY
notes: SEC62, human, residues 361-368 (lacks the helix C-terminal to the AIM/LIR); Tyr attached to the C terminus for quantification by absorbance at 280 nm; also called Sec62361-368 WT (Δhelix); source: synthetic peptide (BEX Co., Ltd.), SEC
On to B6, for which the Kd with LC3A WT [9] came out at 54.6 µM; with GABARAPL2 WT [10], 90.9 µM; with GABARAPL1 WT [11], 13.3 µM; in the data set with LC3C WT, 31.9 µM. The “stoichiometry N” value was 0.98 site with LC3A WT [9] and 0.99 site in the data set with GABARAPL1 WT [11].
